Experimental data reported in patent publication US20050227220A1, “Compositions and Methods for Evaluating and Designing Nuclear Receptor Ligands that Modulate Co-Regulator Affinity” (priority 2002, published 2005).
Primed or numbered codes have the meaning given here. No end group written: not given here. *: point of attachment. fluorescein″ = fluorescein label attached to the peptide N-terminus; Biotin = O=C1N[C@H]2[C@H](CS[C@H]2CCCCC(=O)*)N1

B1: TRβ ligand binding domain (receptor, UniProt P10828 202-461, looked up)
chain: EELQKSIGHKPEPTDEEWELIKTVTEAHVATNAQGSHWKQKRKFLPEDIGQAPIVNAPEGGKVDLEAFSHFTKIITPAITRVVDFAKKLPMFCELPCEDQIILLKGCCMEIMSLRAAVRYDPESETLTLNGEMAVTRGQLKNGGLGVVSDAIFDLGMSLSSFNLDDTEVALLQAVLLMSSDRPGLACVERIEKYQDSFLLAFEHYINYRKHHVTHFWPKLLMKVTDLRMIGACHASRFLHMKVECPTELFPPLFLEVFED
notes: also called Thyroid Receptor LBD; TRβ LBD
B2: GAL4-NcoR (2239-2300) (other)
chain: MKLLSSIEQACDICRLKKLKCSKEKPKCAKCLKNNWECRYSPKTKRSPLTRAHLTEVESRLERLEQLFLLIFPREDLDMILKMDSLQDIKALLTGLFVQDNVNKDAVTDRLASVETDMPLTLRQHRISATSSSEESSNKGQRQLTVSPAVTTSGSVSSRGHSFADPASNLGLEDIIRKALMGSFDDKVEDHGVVMSQPMGVVPGTANTS
notes: range 1-147;range 2239-2300; also called GAL4-NCoR 2239 to 2300
B3: SRC-1 peptide (amino acids 676-700) (peptide)
peptide: Biotin-CPSSHSSLTERHKILHRLLQEGSPS
modifications: also: fluorescent label in polarization assay, not given here
notes: also called SRC-1 (LCD2) 676-700; SRC peptide
B5: VP16-human PPARγ2 (full length) (other)
chain: LSTAPPTDVSLGDELHLDGEDVAMAHADALDDFDLDMLGDGDSPGPGFTPHDSAPYGALDMADFEFEQMFTDALGIDEYGGMGETLGDSPIDPESDSFTDTLSANISQEMTMVDTEMPFWPTNFGISSVDLSVMEDHSHSFDIKPFTTVDFSSISTPHYEDIPFTRTDPVVADYKYDLKLQEYQSAIKVEPASPPYYSEKTQLYNKPHEEPSNSLMAIECRVCGDKASGFHYGVHACEGCKGFFRRTIRLKLIYDRCDLNCRIHKKSRNKCQYCRFQKCLAVGMSHNAIRFGRMPQAEKEKLLAEISSDIDQLNPESADLRALAKHLYDSYIKSFPLTKAKARAILTGKTTDKSPFVIYDMNSLMMGEDKIKFKHITPLQEQSKEVAIRIFQGCQFRSVEAVQEITEYAKSIPGFVNLDLNDQVTLLKYGVHEIIYTMLASLMNKDGVLISEGQGFMTREFLKSLRKPFGDFMEPKFEFAVKFNALELDDSDLAIFIAVIILSGDRPGLLNVKPIEDIQDNLLQALELQLKLNHPESSQLFAKLLQKMTDLRQIVTEHVQLLQVIKKTETDMSLHPLLQEIYKDLY

Columns and labels:
[1] = target: Fluoroscein-NCOR ID-C peptide (NCoR amino acids 2251-2275); assay: fluorescence polarization
[2] = target: Fluoroscein-SMRT ID-C peptide; assay: fluorescence polarization
[3] = target: Fluoroscein-NCOR ID-C peptide (NCoR amino acids 2251-2275); assay: fluorescence polarization, 10 nM fluorescein peptide, LBD titrated, no ligand
[4] = target: Fluoroscein-SMRT ID-C peptide; assay: as above
[5] = target: T1, Fluoroscein-NCOR ID-C peptide (NCoR amino acids 2251-2275) (N-terminal fluorescein); assay: fluorescence polarization, no ligand
T1 construct: also called NCOR peptide; NCoR 2251-2275
T1 peptide: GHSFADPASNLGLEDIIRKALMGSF

[6] = target: T1, Fluoroscein-NCOR ID-C peptide (NCoR …); assay: fluorescence polarization, with agonist ligand T3
[7] = target: B3; assay: fluorescence polarization, with agonist ligand T3
[8] = target: T2, VP16-human PPARα (full length) (human, UniProt P06492 410-490; Q07869 1-468); assay: mammalian two-hybrid in CV-1 cells
T2 construct: also called VP16 full length PPARα

[9] = target: B5; assay: mammalian two-hybrid in CV-1 cells
[10] = target: B1; assay: fluorescence polarization, apparent affinity, no ligand
[11] = target: T3, biotin-NCOR ID-C peptide (NCoR amino acids 2251-2275) (N-terminal biotin); assay: time-resolved FRET (ratio 665 nm/620 nm), biotinylated NCOR (2251-2275) peptide on europium streptavidin with APC-labeled LXRα LBD, test compound at 2 µM; normalized to % inhibition or activation
T3 construct: also called NCOR-derived co-repressor peptide
T3 peptide: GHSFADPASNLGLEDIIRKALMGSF

[12] = target: T4, human PPARγ ligand binding domain (amino acids 206-477) (human, UniProt P37231-2 206-477); assay: fluorescence polarization, 10 nM fluorescein peptide, LBD titrated, no ligand
T4 construct: range 206-477; placed at the N-terminus here; Biotinylated for FRET; also called PPARγ LBD
T4 sequence: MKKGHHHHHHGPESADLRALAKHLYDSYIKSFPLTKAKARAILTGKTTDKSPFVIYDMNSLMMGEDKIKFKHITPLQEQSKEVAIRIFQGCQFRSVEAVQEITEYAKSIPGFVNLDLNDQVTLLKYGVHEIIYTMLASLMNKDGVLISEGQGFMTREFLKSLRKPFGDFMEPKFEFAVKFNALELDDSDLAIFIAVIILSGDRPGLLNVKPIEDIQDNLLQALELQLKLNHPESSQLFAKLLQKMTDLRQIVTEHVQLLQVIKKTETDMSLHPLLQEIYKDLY

[13] = target: T5, human PPARδ ligand binding domain (amino acids 139-441) (human, UniProt Q03181 139-441, Biotinylated (site not stated) in the FRET assays; unlabelled in fluorescence polarization and SPR.); assay: as above
T5 construct: placed at the N-terminus here; Biotinylated for FRET; also called PPARδ LBD
T5 sequence: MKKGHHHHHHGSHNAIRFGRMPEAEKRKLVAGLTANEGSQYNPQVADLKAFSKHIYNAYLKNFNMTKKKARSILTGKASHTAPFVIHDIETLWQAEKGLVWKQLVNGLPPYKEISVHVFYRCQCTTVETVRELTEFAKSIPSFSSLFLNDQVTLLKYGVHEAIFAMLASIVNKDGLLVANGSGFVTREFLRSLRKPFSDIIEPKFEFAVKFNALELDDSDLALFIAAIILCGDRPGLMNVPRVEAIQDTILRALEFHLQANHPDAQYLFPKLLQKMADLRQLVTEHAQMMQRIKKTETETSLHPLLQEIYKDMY

[14] = target: T6, RXRα ligand binding domain (amino acids 225-462) (UniProt P19793 225-462); assay: as above
T6 construct: range 225-462; Biotinylated for FRET; also called RXRα LBD; not shown: His-tag
T6 sequence (looked up): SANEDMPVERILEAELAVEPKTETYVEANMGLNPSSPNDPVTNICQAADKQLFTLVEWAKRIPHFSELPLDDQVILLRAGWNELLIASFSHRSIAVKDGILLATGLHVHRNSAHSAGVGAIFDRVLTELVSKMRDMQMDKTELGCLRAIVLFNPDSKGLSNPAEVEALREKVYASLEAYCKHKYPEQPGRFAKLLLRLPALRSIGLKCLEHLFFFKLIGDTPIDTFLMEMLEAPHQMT

[15] = target: T7, ERβ ligand binding domain (amino acids 257-530) (UniProt Q92731 257-530); assay: as above
T7 construct: range 257-530; not shown: His-tag
T7 sequence (Q92731 257-530 limits assumed): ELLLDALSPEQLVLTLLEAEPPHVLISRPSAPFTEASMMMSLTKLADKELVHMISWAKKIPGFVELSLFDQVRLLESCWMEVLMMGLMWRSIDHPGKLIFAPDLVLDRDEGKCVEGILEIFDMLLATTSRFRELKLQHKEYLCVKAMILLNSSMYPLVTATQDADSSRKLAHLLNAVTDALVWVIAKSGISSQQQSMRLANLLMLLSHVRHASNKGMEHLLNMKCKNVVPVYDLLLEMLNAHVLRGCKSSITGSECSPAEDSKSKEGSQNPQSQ

[16] = target: B1; assay: as above
[17] = target: T8, RARα ligand binding domain (amino acids 146-432) (UniProt P10276 146-432); assay: as above
T8 construct: range 146-432; not shown: His-tag
T8 sequence (looked up): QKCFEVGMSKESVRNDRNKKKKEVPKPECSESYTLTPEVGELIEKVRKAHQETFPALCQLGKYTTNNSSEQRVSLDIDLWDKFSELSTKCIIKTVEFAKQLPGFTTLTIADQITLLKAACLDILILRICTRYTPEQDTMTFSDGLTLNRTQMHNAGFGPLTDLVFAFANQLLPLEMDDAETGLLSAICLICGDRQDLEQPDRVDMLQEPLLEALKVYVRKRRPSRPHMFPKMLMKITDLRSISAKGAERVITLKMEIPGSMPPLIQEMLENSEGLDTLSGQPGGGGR

[18] = target: T9, human PPARα ligand binding domain (amino acids 192-468) (human, UniProt Q07869 192-468); assay: as above
T9 construct: range 192-468; placed at the N-terminus here; Biotinylated for FRET; also called PPARα LBD
T9 sequence: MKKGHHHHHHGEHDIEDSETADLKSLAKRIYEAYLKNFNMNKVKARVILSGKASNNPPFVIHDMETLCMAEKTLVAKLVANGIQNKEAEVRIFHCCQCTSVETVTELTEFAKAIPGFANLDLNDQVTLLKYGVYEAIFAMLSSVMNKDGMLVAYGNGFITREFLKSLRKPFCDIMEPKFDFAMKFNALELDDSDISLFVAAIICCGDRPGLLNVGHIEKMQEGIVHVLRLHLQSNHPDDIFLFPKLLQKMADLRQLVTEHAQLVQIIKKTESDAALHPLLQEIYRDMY

GAL4-CBP (1-115) = GAL4-CBP (1-115) (UniProt P04386 1-147; P45481 1-115); assay: cell-based or functional assay
GAL4-NcoR (2239-2300) = target: B2; assay: cell-based or functional assay

RXRαΔAF2 ligand binding domain (amino acids 225-446) (from UniProt P19793 225-446) (receptor)
fold greater affinity against RXRα ligand binding domain [1]: 100 fold | fold greater affinity against RXRα ligand binding domain [2]: 100 fold | Kd [3]: 0.39 µM | Kd [4]: 0.25 µM

B1
fold greater affinity against the coactivator peptide (SRC-1) [5]: 10 fold | fold decrease in affinity with T3 against no ligand [6]: 9 fold | fold greater affinity against the co-repressor peptide (NCoR ID-C) [7]: 48 fold | fold increase in affinity with T3 against no ligand [7]: 50 fold

B2
binding result [8]: binds | binding result [9]: binds

B3
Kd [10]: 7.1 µM

B4: LXR alpha LBD (receptor, not shown: small tags and cut ends)
chain: EEEQAHATSLPPRASSPPQILPQLSPEQLGMIEKLVAAQQQCNRRSFSDRLRVTPWPMAPDPHSREARQQRFAHFTELAIVSVQEIVDFAKQLPGFLQLSREDQIALLKTSAIEVMLLETSRRYNPGSESITFLKDFSYNREDFAKAGLQVEFINPIFEFSRAMNELQLNDAEFALLIAISIFSADRPNVQDQLQVERLQHTYVEALHAYVSIHHPHDRLMFPRMLMKLVSLRTLSSVHSEQVFALRLQDKKLPPLLSEIWDVHE
modifications: Biotinylated and bound to streptavidin-APC in the assay; His-tag not written
notes: also called LXRα
binding result [11]: binds

{fluorescein″}-TNMGLEAIIFKALMGKYDQWEE [Fluoroscein-SMRT ID-C peptide]
Kd [12]: 1.8 µM | Kd [13]: 7.7 µM | Kd [14]: 20 µM | Kd [15]: 30 µM | Kd [16]: 0.74 µM | Kd [17]: 2.1 µM | Kd [18]: 6.1 µM

B5
mammalian two-hybrid reporter, fold association with GW1929 and GW7845 (GAL4-CBP (1-115)): ~3 fold | mammalian two-hybrid reporter, fold dissociation with GW1929 and GW7845 (GAL4-NcoR (2239-2300)): ~3 fold
